B1: DbpAB31, recombinant histidine-tagged DbpA of B. burgdorferi strain B31 (natural protein)
chain: ATKIRLERSAKDITDEIDAIKKDAALKGVNFDAFKDKKTGSGVSENPFILEAKVRATTVAEKFVIAIEEEATKLKETGSSGEFSAMYDLMFEVSKPLQKLGIQEMTKTVSDAAEENPPTTAQGVLEIAKKMREKLQRVHTKNYCTLKKKENSTFTDEKCKNN

Experiments:
[1] = biological target: Recombinant human decorin (human) (UniProt P07585); test: SPR; Biacore 3000; 10 µg biotinylated decorin on an SA chip; 0-500 nM DbpA injected at 10 µL/min, 25°C; control flow cell with PBS; 1:1 Langmuir model
Sequence of Recombinant human decorin (human) (P07585 31-359): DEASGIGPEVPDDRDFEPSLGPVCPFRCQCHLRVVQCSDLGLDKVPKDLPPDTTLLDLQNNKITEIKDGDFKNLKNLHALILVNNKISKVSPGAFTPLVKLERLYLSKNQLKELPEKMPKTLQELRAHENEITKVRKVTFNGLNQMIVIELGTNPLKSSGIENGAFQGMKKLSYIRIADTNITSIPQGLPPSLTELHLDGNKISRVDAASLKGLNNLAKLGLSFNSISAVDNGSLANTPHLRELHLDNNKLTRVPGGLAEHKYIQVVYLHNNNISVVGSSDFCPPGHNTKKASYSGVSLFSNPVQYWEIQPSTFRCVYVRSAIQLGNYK

[2] = biological target: Recombinant human decorin (human) (UniProt P07585); test: ELISA; quantitative ELISA; 1 µg decorin coated on microtiter wells; 0.03125-2 µM histidine-tagged DbpA added; detected with mouse anti-histidine tag and HRP anti-mouse IgG; KD from a fit of the curve
[3] = biological target: T1, Recombinant human decorin (human, UniProt P07585 31-359, biotin (biotinylated decorin on the SA chip in the SPR experiment; sites not stated)); test: SPR; Biacore 3000; 10 µg biotinylated decorin on an SA chip; 0-500 nM DbpA injected at 10 µL/min, 25°C; control flow cell with PBS; 1:1 Langmuir model; settings: both partners purified
T1 construct: Decorin, human, recombinant; Decorin is a proteoglycan that carries dermatan sulfate; Secreted from CHO cells, so probably the mature protein (surmise); source: stably transfected Chinese hamster ovary cells (ATCC CCL 61), purified; gift from MedImmune
T1 sequence (P07585 31-359): as above

[4] = biological target: T1, Recombinant human decorin; test: ELISA; quantitative ELISA; 1 µg decorin coated on microtiter wells; 0.03125-2 µM histidine-tagged DbpA added; detected with mouse anti-histidine tag and HRP anti-mouse IgG; KD from a fit of the curve; settings: both partners purified

Row | Molecule | Kd [1] | koff [1] | kon [1] | Kd [2] | Kd [3] | koff [3] | kon [3] | Kd [4]
1 | DbpA297, recombinant histidine-tagged DbpA of B. burgdorferi strain 297 (from UniProt O50917 30-187) (natural protein) | 300 nM | 0.1 s⁻¹ | 351000 M⁻¹ s⁻¹ | 140 nM | – | – | – | –
2 | DbpA_(B356), recombinant histidine-tagged DbpA of B. burgdorferi strain B356 (natural protein) | 840 nM | 0.06 s⁻¹ | 66000 M⁻¹ s⁻¹ | 950 nM | – | – | – | –
3 | DbpA_(N40-D10/E9), recombinant histidine-tagged DbpA of B. burgdorferi strain N40-D10/E9 (from UniProt O50917 30-191) (natural protein) | 710 nM | 0.07 s⁻¹ | 97000 M⁻¹ s⁻¹ | 850 nM | – | – | – | –
4 | DbpAPBr, recombinant histidine-tagged DbpA of B. garinii strain PBr (natural protein) | 90 nM | 0.13 s⁻¹ | 1.83e+06 M⁻¹ s⁻¹ | 60 nM | – | – | – | –
5 | DbpA_(VS461), recombinant histidine-tagged DbpA of B. afzelii strain VS461 (natural protein) | 260 nM | 0.04 s⁻¹ | 152000 M⁻¹ s⁻¹ | 290 nM | – | – | – | –
6 | B1 | – | – | – | – | 280 nM | 0.11 s⁻¹ | 417000 M⁻¹ s⁻¹ | 210 nM

— PMC4117581, “Strain-Specific Variation of the Decorin-Binding Adhesin DbpA Influences the Tissue Tropism of the Lyme Disease Spirochete” (PLoS Pathogens, 2014)
